In assay [1] the target is mEGFP-labelled WASp (reciprocal tagging) (Drosophila). Nature of the assay: FRET or BRET; FLIM-FRET, pixel-resolution 'Interaction' in the CNS of live Drosophila embryos at hours 15 and 21, and Polarplot estimate of the percentage of donor molecules undergoing FRET (hour not told for the percentages).
Assay [2] has as its target WASp labelled with mCherry at its carboxyl terminus (Drosophila). Nature of the assay: FRET or BRET; FLIM-FRET (3D frequency-domain FLIM): mean mEGFP donor fluorescence lifetime in a CNS segment of live whole Drosophila embryos at hour 15; both proteins expressed in all neurons under elav-GAL4; baseline lifetime without FRET 2.56 ns; 10-20 embryos for each experiment. A general note: Bioluminescence resonance energy transfer reports proximity on the nanometre scale.

The target of assay [3] is mCherry::WASp (Wiskott-Aldrich Syndrome protein labelled with mCherry at its amino terminus) (Drosophila). The description is as above.
The target is the same in assay [4]. Nature of the assay: FRET or BRET; FLIM-FRET, pixel-resolution 'Interaction' in the CNS of live Drosophila embryos at hours 15 and 21, and Polarplot estimate of the percentage of donor molecules undergoing FRET (hour not told for the percentages).

mCherry::WASp (Wiskott-Aldrich Syndrome protein labelled with mCherry at its amino terminus) (Drosophila), sequence (main, as listed by the source): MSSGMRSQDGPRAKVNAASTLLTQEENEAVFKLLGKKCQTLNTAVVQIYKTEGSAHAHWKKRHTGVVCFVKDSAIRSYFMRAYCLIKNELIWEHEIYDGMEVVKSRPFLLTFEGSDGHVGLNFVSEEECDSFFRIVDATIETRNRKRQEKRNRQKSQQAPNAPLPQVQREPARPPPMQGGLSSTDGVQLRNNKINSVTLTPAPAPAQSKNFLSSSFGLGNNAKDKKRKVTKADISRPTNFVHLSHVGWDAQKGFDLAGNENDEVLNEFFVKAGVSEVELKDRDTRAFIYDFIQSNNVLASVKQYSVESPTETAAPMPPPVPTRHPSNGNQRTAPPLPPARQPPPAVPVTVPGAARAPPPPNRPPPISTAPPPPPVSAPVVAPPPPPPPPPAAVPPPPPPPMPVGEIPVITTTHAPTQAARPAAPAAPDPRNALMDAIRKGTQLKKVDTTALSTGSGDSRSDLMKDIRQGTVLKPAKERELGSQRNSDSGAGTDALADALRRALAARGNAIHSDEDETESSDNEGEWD
mEGFP-labelled WASp (reciprocal tagging) (Drosophila), sequence (main, as listed by the source): as above
WASp labelled with mCherry at its carboxyl terminus (Drosophila), sequence (main, as listed by the source): as above

On to “mCherry-labelled Cdc42 (reciprocal tagging) (from UniProt P40793 1-191) (natural protein)”, for which, in assay [1], the fraction of WASp interacting with Cdc42 was 30%.
Turning to “mEGFP::Cdc42 (cell division control protein 42 homolog labelled with mEGFP) (from UniProt P40793 1-191) (natural protein)”, the figures for the mean donor (mEGFP) fluorescence lifetime in assay [2] and in assay [3] were 2.44 ns and 2.45 ns, respectively. Further, in assay [4], the fraction of Cdc42 interacting with WASp was 10%.
